This is an account of results in article PMC10499537 (Biomedicine & pharmacotherapy = Biomedecine & …, 2023).

Experiment [1] concerns the target T1, ADAM10 D+C domains construct (species not named for the experiment) (Bos taurus, assumed).
T1 chain: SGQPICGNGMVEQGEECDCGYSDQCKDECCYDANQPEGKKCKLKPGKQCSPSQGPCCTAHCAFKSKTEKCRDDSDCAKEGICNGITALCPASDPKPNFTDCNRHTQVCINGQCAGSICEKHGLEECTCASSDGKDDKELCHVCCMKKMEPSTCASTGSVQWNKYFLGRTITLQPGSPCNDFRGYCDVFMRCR
Nature of the experiment: ELISA.

In experiment [2] the target is full recombinant ADAM10 ECD (species not named for the experiment) (Bos taurus, assumed, UniProt Q10741). Briefly: BLI.
Experiment [3] concerns the target human ADAM17 D+C (482-648) (Homo sapiens, UniProt P78536). Nature of the experiment: ELISA.
Experiment [4] concerns the target human ADAM19 D+C construct (438-646) (Homo sapiens, UniProt Q9H013). Nature of the experiment: ELISA.

Chain of human ADAM17 D+C (482-648) (P78536 482-648): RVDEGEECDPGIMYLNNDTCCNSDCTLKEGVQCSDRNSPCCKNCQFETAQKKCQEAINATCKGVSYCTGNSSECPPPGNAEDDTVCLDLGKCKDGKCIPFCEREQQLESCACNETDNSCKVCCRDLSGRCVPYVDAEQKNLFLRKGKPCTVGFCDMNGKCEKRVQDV
Chain of full recombinant ADAM10 ECD (species not named for the experiment) (Q10741 20-672): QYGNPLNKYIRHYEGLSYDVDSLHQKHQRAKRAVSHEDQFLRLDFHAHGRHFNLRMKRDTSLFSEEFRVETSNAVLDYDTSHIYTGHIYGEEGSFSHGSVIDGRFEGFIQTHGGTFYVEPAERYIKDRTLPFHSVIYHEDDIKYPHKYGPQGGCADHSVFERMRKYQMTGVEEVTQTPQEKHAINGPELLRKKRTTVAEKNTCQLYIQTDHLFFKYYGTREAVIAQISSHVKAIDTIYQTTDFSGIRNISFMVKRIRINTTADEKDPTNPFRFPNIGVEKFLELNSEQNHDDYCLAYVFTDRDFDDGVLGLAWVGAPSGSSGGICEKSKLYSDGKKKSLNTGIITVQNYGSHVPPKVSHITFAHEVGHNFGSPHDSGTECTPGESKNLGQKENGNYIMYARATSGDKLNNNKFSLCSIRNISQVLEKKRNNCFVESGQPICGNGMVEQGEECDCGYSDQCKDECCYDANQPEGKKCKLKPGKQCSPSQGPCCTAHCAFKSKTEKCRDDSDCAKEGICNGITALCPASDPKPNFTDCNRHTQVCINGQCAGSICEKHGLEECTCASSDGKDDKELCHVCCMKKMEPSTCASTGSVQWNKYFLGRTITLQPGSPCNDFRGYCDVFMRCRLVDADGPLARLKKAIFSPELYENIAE
Chain of human ADAM19 D+C construct (438-646) (Q9H013 438-646): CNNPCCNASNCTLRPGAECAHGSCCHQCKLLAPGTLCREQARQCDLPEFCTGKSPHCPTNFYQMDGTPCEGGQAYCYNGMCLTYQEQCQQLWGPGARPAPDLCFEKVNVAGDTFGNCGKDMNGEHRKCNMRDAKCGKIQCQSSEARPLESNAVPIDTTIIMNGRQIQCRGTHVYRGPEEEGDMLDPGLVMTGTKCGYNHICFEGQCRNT

B1: murine anti-ADAM10 monoclonal antibody 8C7 (IgG) (antibody, V domains shown)
VH: QVQLEESGAELARPGSSVKLSCKASGYTFTNYWLQWVKQRTGQGLEWIGAIYPRDGDAKYSQKFKDKASLTVNESSSTAYMHLSALASEDSAVYYCARANYGLYYAMDRWGQGTSVTVSS
VL: DIFLTQSPANMSVSPGERVSFSCRASQNIGTNIHWYQQRTNGSPRLLIKYASESISGIPSRFSGSGSGTDFILSINTVESEDIAVYFCQQSNRWPFTFGSGTKLEVI
B1: the binding result in experiment [1] is “binds”.

B2: fully human anti-ADAM10 monoclonal antibody 1H5 (IgG) (antibody, V domains shown)
VH: QVQLVESGGGLVKPGGSLRLSCAASGFTFSDYYMSWIRQAPGKGLEWVSYISSSGSTIYYADSVKGRFTISRDNAKNSLYLQMNSLRAEDTAVYYCARDFYDSKIFDYWGQGTLVTVSS
VL: DIQMTQSPSSLSASVGDRVTITCRASQSISSYLNWYQQKPGKAPKLLIYAASSLQSGVPSRFSGSGSGTDFTLTISSLQPEDVGVYYCMEGLKTPFTFGPGTKLEIK
Take B2: the Kd in experiment [2] was around 0.2 µM. Besides, the binding result in experiment [3] and in experiment [4] was “no binding” throughout.
